The numbers were not newly measured in PMC8969216, which cites them from elsewhere.

The target of the series is SLAMF1 (Homo sapiens) (UniProt Q13291).

Consider SLAMF1 (from UniProt Q13291), for which the Kd is 200 µM.

The Kd is the concentration at which binding is half-saturated.
